Source: US20230407373A1 (priority 2020, published 2023)
Where two headings read alike, the source gives them in different places.

Legend:
Type in all cases: binding
[1] = system: SARS-CoV-2 gRNA and sgRNAs; conditions: for target (unweighted spectral count in RNP capture): Probe II capture, LC-MS/MS LFQ; for background (unweighted spectral count in control): no-probe control pull-down, used as background for Probe II
gRNA of HCoV-OC43 = conditions: for target (spectral count) / background (spectral count): type g_36_m, 36 hpi, Probe I; for target (spectral count): HCoV-OC43-infected HCT-8 cells; for background (spectral count): uninfected-probe control
HCoV-OC43 gRNA and sgRNA = conditions: for target (unweighted spectral count, OC43 Probe II capture): tested against no-probe control, FDR<10%

B1: HRNPA2B1 (protein, UniProt P22626 1-353, looked up)
Heterogeneous nuclear …: MEKTLETVPLERKKREKEQFRKLFIGGLSFETTEESLRNYYEQWGKLTDCVVMRDPASKRSRGFGFVTFSSMAEVDAAMAARPHSIDGRVVEPKRAVAREESGKPGAHVTVKKLFVGGIKEDTEEHHLRDYFEEYGKIDTIEIITDRQSGKKRGFGFVTFDDHDPVDKIVLQKYHTINGHNAEVRKALSRQEMQEVQSSRSGRGGNFGFGDSRGGGGNFGPGPGSNFRGGSDGYGSGRGFGDGYNGYGGGPGGGNFGGSPGYGGGRGGYGGGGPGYGNQGGGYGGGYDNYGGGNYGSGNYNDFGNYNQQPSNYGPMKSGNFGGSRNMGGPYGGGNYGPGGSGGSGGYGGRSRY
target (unweighted spectral count in RNP capture) [1]: 88 | background (unweighted spectral count in control) [1]: 1

B2: HRNPR (protein, UniProt O43390 2-633, looked up)
Heterogeneous nuclear …: ANQVNGNAVQLKEEEEPMDTSSVTHTEHYKTLIEAGLPQKVAERLDEIFQTGLVAYVDLDERAIDALREFNEEGALSVLQQFKESDLSHVQNKSAFLCGVMKTYRQREKQGSKVQESTKGPDEAKIKALLERTGYTLDVTTGQRKYGGPPPDSVYSGVQPGIGTEVFVGKIPRDLYEDELVPLFEKAGPIWDLRLMMDPLSGQNRGYAFITFCGKEAAQEAVKLCDSYEIRPGKHLGVCISVANNRLFVGSIPKNKTKENILEEFSKVTEGLVDVILYHQPDDKKKNRGFCFLEYEDHKSAAQARRRLMSGKVKVWGNVVTVEWADPVEEPDPEVMAKVKVLFVRNLATTVTEEILEKSFSEFGKLERVKKLKDYAFVHFEDRGAAVKAMDEMNGKEIEGEEIEIVLAKPPDKKRKERQAARQASRSTAYEDYYYHPPPRMPPPIRGRGRGGGRGGYGYPPDYYGYEDYYDDYYGYDYHDYRGGYEDPYYGYDDGYAVRGRGGGRGGRGAPPPPRGRGAPPPRGRAGYSQRGAPLGPPRGSRGGRGGPAQQQRGRGSRGSRGNRGGNVGGKRKADGYNQPDSKRRQTNNQQNWGSQPIAQQPLQQGGDYSGNYGYNNDNQEFYQDTYGQQWK
target (unweighted spectral count in RNP capture) [1]: 32 | background (unweighted spectral count in control) [1]: 1

B3: DOX3X (protein, UniProt O00571 2-662, looked up)
ATP-dependent RNA helicase …: SHVAVENALGLDQQFAGLDLNSSDNQSGGSTASKGRYIPPHLRNREATKGFYDKDSSGWSSSKDKDAYSSFGSRSDSRGKSSFFSDRGSGSRGRFDDRGRSDYDGIGSRGDRSGFGKFERGGNSRWCDKSDEDDWSKPLPPSERLEQELFSGGNTGINFEKYDDIPVEATGNNCPPHIESFSDVEMGEIIMGNIELTRYTRPTPVQKHAIPIIKEKRDLMACAQTGSGKTAAFLLPILSQIYSDGPGEALRAMKENGRYGRRKQYPISLVLAPTRELAVQIYEEARKFSYRSRVRPCVVYGGADIGQQIRDLERGCHLLVATPGRLVDMMERGKIGLDFCKYLVLDEADRMLDMGFEPQIRRIVEQDTMPPKGVRHTMMFSATFPKEIQMLARDFLDEYIFLAVGRVGSTSENITQKVVWVEESDKRSFLLDLLNATGKDSLTLVFVETKKGADSLEDFLYHEGYACTSIHGDRSQRDREEALHQFRSGKSPILVATAVAARGLDISNVKHVINFDLPSDIEEYVHRIGRTGRVGNLGLATSFFNERNINITKDLLDLLVEAKQEVPSWLENMAYEHHYKGSSRGRSKSSRFSGGFGARDYRQSSGASSSSFSSSRASSSRSGGGGHGSSRGFGGGGYGGFYNSDGYGGNYNSQGVDWWGN
target (unweighted spectral count in RNP capture) [1]: 49 | background (unweighted spectral count in control) [1]: 1

B4: RAVER1 (protein, UniProt Q8IY67 2-606, looked up)
Ribonucleoprotein PTB-binding …: AADVSVTHRPPLSPKSGAEVEAGDAAERRAPEEELPPLDPEEIRKRLEHTERQFRNRRKILIRGLPGDVTNQEVHDLLSDYELKYCFVDKYKGTAFVTLLNGEQAEAAINAFHQSRLRERELSVQLQPTDALLCVANLPPSLTQQQFEELVRPFGSLERCFLVYSERTGQSKGYGFAEYMKKDSAARAKSDLLGKPLGPRTLYVHWTDAGQLTPALLHSRCLCVDRLPPGFNDVDALCRALSAVHSPTFCQLACGQDGQLKGFAVLEYETAEMAEEAQQQADGLSLGGSHLRVSFCAPGPPGRSMLAALIAAQATALNRGKGLLPEPNILQLLNNLGPSASLQLLLNPLLHGSAGGKQGLLGAPPAMPLLNGPALSTALLQLALQTQGQKKPGILGDSPLGALQPGAQPANPLLGELPAGGGLPPELPPRRGKPPPLLPSVLGPAGGDREALGLGPPAAQLTPPPAPVGLRGSGLRGPLSHFYSGSPTSYFTSGLQAGLKQSHLSKAIGSSPLGSGEGLLGLSPGPNGHSHLLKVRAGGGDMQGWEAPAPQRPLTRPALPSVSRPHWAARNAALPTCCPRPSPAQKAAMWASTPRASAATTRTPT
target (spectral count, OC43 Probe I RNP capture) (gRNA of HCoV-OC43; type n_48_v: 48 hours post-infection, infected cells, OC43 Probe I, unweighted spectral count): 5 | background (spectral count, no-probe control) (gRNA of HCoV-OC43; type n_48_v: 48 hours post-infection, no-probe control on infected cells): 1 | target (unweighted spectral count, OC43 Probe II) (HCoV-OC43 gRNA and sgRNA; type n_48_v, 48 hpi, OC43 Probe II capture on infected cells): 5 | background (unweighted spectral count, no-probe control) (HCoV-OC43 gRNA and sgRNA; type n_48_v, 48 hpi, no-probe control on infected cells): 1

B5: FAM120C (protein, UniProt Q9NX05 1-1096, looked up)
Constitutive coactivator of …: MGVQGFQEFLEKRCPGAVVPVDLLKLARTVSRQQQQQHLHRQLPPTAALAPGAPRAARGSVPLQPPLPPAALGAYSGGAGPTRHHHPAHHFHHHGQAQPGLHPPLPPPPPPQLPGARVLVDAGSALPRLYGGYQTDWVCGGQWNAMLGYLSALCQACAYPGGDGLELVVMFPGGLGKDRLAEWGRRCQAERQTAQLIVGHVGNKGTPPPRAWFLPPACLSHCVRLALIRFRVKVFQSLEDHHLEVVAFFRENGFHGLLAHDSEYALYNIPSYYSSHALKLSWNGKNLTTNQFLMQEVAKQLGLKRMNFPIFAALLGNHILPDEDLAAFHWSLLGPEHPLASLKVRAHQLVLPPCDVVIKAVSEYVSSIKDPSNLDVVGKDVFKQSQSRTEDKIERFKKAVEYYSVTTKLSSLPVGPSFLGFRNNRLGNPPLPRNQVGTISAGKPMFSHQVPQKVKYPPPFPVGPNSSLLFSSHALGESHAFSEDPMLQNSPFANWAVSYDSSASQFPNYLPSKASPPLGPDSSHSSSSDGDEPNGASSDHITEAFHHQPEWGNPNRDRGSWAQPVDTGVSEASLGDGEPHIPSLLSMSTRNHMDITIPPLPPVAPEVLRVAEHRHRRGLMYPYIYHVLTKGEIKIPVCIEDECNMELPPAALLFRSARQYVYGVLFSLAETQRKMERLAMRRRLPVEVPSVILKEWSAYKGKSPQTPELVSALTFREWTCPNLKKLWLGKAVEDKNRRMRAFLACMKSDTPSMLNPANVPTHLLLMCCVLRYMVQWPGGRILHRHELDTFLAQAVSTQLYEPDRLQELKIEKLDARGIQLAALFMSGVDTALFANDACGQPVPWEHCCPWIYFDGKLFQSKLIKAGRERVSLVELCDGQADLATKVEKMRQSILEGVNMNHPPPSALLPSPTFVPPMVPSLYPVSLYSRAMGSMPLPPQGRSRGFAGLHPIPPQGGKLEIAGMVVGQWAGSRSSRGRGSFGMQVVSVGGPGKGHGKEQTGRGSKGHKKGNKQGSSDGVSKSLELHQGRSRSQVNGNSGALIKEEKSDHRLPAPSQCALSRDSNECNNGNRYLPMNNREKNHLQEQKLETVAQRKED
target (unweighted spectral count in RNP capture) [1]: 14 | background (unweighted spectral count in control) [1]: 1

B6: LUC7L2: host protein, UniProt Q9Y383 (protein, UniProt Q9Y383 1-392, looked up)
Putative RNA-binding protein …: MSAQAQMRAMLDQLMGTSRDGDTTRQRIKFSDDRVCKSHLLNCCPHDVLSGTRMDLGECLKVHDLALRADYEIASKEQDFFFELDAMDHLQSFIADCDRRTEVAKKRLAETQEEISAEVAAKAERVHELNEEIGKLLAKVEQLGAEGNVEESQKVMDEVEKARAKKREAEEVYRNSMPASSFQQQKLRVCEVCSAYLGLHDNDRRLADHFGGKLHLGFIEIREKLEELKRVVAEKQEKRNQERLKRREEREREEREKLRRSRSHSKNPKRSRSREHRRHRSRSMSRERKRRTRSKSREKRHRHRSRSSSRSRSRSHQRSRHSSRDRSRERSKRRSSKERFRDQDLASCDRDRSSRDRSPRDRDRKDKKRSYESANGRSEDRRSSEEREAGEI
target (spectral count) (gRNA of HCoV-OC43): 9 | background (spectral count) (gRNA of HCoV-OC43): 1 | target (unweighted spectral count, OC43 Probe II capture) (HCoV-OC43 gRNA and sgRNA; 24 hpi, type n_24_v): 4

B7: PDIA6: host protein, UniProt Q15084 (protein, UniProt Q15084 20-440, looked up)
Protein disulfide-isomerase A6: LYSSSDDVIELTPSNFNREVIQSDSLWLVEFYAPWCGHCQRLTPEWKKAATALKDVVKVGAVDADKHHSLGGQYGVQGFPTIKIFGSNKNRPEDYQGGRTGEAIVDAALSALRQLVKDRLGGRSGGYSSGKQGRSDSSSKKDVIELTDDSFDKNVLDSEDVWMVEFYAPWCGHCKNLEPEWAAAASEVKEQTKGKVKLAAVDATVNQVLASRYGIRGFPTIKIFQKGESPVDYDGGRTRSDIVSRALDLFSDNAPPPELLEIINEDIAKRTCEEHQLCVVAVLPHILDTGAAGRNSYLEVLLKLADKYKKKMWGWLWTEAGAQSELETALGIGGFGYPAMAAINARKMKFALLKGSFSEQGINEFLRELSFGRGSTAPVGGGAFPTIVEREPWDGRDGELPVEDDIDLSDVELDDLGKDEL
target (spectral count) (gRNA of HCoV-OC43): 12 | background (spectral count) (gRNA of HCoV-OC43): 1 | target (unweighted spectral count, OC43 Probe II capture) (HCoV-OC43 gRNA and sgRNA; 24 hpi, type n_24_v): 4 | target (unweighted spectral count, OC43 Probe II capture) (HCoV-OC43 gRNA and sgRNA; 36 hpi, type n_36_v): 7 | target (spectral count) (HCoV-OC43 gRNA and sgRNA; type s_36_m, HCoV-OC43-infected HCT-8 cells, 36 hpi, Probe II): 7 | background (spectral count) (HCoV-OC43 gRNA and sgRNA; type s_36_m, uninfected-probe control, 36 hpi, Probe II): 1

B8: BICC1 (protein, UniProt Q9H694 1-974, looked up)
Protein bicaudal C homolog 1: MAAQGEPGYLAAQSDPGSNSERSTDSPVPGSEDDLVAGATLHSPEWSEERFRVDRKKLEAMLQAAAEGKGRSGEDFFQKIMEETNTQIAWPSKLKIGAKSKKDPHIKVSGKKEDVKEAKEMIMSVLDTKSNRVTLKMDVSHTEHSHVIGKGGNNIKKVMEETGCHIHFPDSNRNNQAEKSNQVSIAGQPAGVESARVRIRELLPLVLMFELPIAGILQPVPDPNSPSIQHISQTYNISVSFKQRSRMYGATVIVRGSQNNTSAVKEGTAMLLEHLAGSLASAIPVSTQLDIAAQHHLFMMGRNGSNIKHIMQRTGAQIHFPDPSNPQKKSTVYLQGTIESVCLARQYLMGCLPLVLMFDMKEEIEVDPQFIAQLMEQLDVFISIKPKPKQPSKSVIVKSVERNALNMYEARKCLLGLESSGVTIATSPSPASCPAGLACPSLDILASAGLGLTGLGLLGPTTLSLNTSTTPNSLLNALNSSVSPLQSPSSGTPSPTLWAPPLANTSSATGFSAIPHLMIPSTAQATLTNILLSGVPTYGHTAPSPPPGLTPVDVHINSMQTEGKKISAALNGHAQSPDIKYGAISTSSLGEKVLSANHGDPSIQTSGSEQTSPKSSPTEGCNDAFVEVGMPRSPSHSGNAGDLKQMMCPSKVSCAKRQTVELLQGTKNSHLHSTDRLLSDPELSATESPLADKKAPGSERAAERAAAAQQNSERAHLAPRSSYVNMQAFDYEQKKLLATKAMLKKPVVTEVRTPTNTWSGLGFSKSMPAETIKELRRANHVSYKPTMTTTYEGSSMSLSRSNSREHLGGGSESDNWRDRNGIGPGSHSEFAASIGSPKRKQNKSTEHYLSSSNYMDCISSLTGSNGCNLNSSFKGSDLPELFSKLGLGKYTDVFQQQEIDLQTFLTLTDQDLKELGITTFGARRKMLLAISELNKNRRKLFESPNARTSFLEGGASGRLPRQYHSDIASVSGRW
target (unweighted spectral count in RNP capture) [1]: 11 | background (unweighted spectral count in control) [1]: 1
